Reference: US20170368169A1 (MARENGO THERAPEUTICS, published 2017)

What was measured:
[1] = molecular target: T1, human mesothelin (generated from SEQ ID NO: 181) (human); test: ELISA on plate-bound antigen, molecule titrated 1 uM-1 pM
T1 construct: Antigen construct made in house; BirA was co-transfected when biotinylation was required; also called hMeso 1-7; hMesothelin
T1 chain: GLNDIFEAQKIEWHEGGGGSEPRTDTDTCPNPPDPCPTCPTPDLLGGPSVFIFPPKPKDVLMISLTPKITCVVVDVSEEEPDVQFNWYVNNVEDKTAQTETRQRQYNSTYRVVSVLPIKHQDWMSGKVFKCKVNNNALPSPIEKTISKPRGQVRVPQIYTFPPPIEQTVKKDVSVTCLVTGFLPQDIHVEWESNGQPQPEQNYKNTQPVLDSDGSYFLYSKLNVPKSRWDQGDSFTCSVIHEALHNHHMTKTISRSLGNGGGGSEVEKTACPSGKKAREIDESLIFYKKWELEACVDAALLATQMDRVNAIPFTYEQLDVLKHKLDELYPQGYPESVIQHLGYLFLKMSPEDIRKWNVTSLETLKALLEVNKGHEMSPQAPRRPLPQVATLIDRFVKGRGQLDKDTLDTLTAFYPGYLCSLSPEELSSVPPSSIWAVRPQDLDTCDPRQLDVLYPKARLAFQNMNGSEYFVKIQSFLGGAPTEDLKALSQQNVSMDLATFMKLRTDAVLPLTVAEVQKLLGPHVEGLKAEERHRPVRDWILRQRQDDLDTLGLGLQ

[2] = molecular target: T2, human PD1L1 (generated from SEQ ID NO: 178) (human); test: as above
T2 construct: Antigen construct made in house; also called hPD1L1; human PDL1

B1: Multispecific molecule 5 (bispecific antibody, human IgG1, kappa, lambda)
heavy 1: not shown
light 1: not shown
heavy 2: EVQLLESGGGLVQPGGSLRLSCAASGFTFSSYIMMWVRQAPGKGLEWVSSIYPSGGITFYADTVKGRFTISRDNSKNTLYLQMNSLRAEDTAVYYCARIKLGTVTTVDYWGQGTLVTVSSASTKGPSVFPLAPSSKSTSGGTAALGCLVKDYFPEPVTVSWNSGALTSGVHTFPAVLQSSGLYSLSSVVTVPSSSLGTQTYICNVNHKPSNTKVDKRVEPKSCDKTHTCPPCPAPELLGGPSVFLFPPKPKDTLMISRTPEVTCVVVDVSHEDPEVKFNWYVDGVEVHNAKTKPREEQYNSTYRVVSVLTVLHQDWLNGKEYKCKVSNKALPAPIEKTISKAKGQPREPQVCTLPPSREEMTKNQVSLSCAVKGFYPSDIAVEWESNGQPENNYKTTPPVLDSDGSFFLVSKLTVDKSRWQQGNVFSCSVMHEALHNHYTQKSLSLSPGK
light 2: QSALTQPASVSGSPGQSITISCTGTSSDVGGYNYVSWYQQHPGKAPKLMIYDVSNRPSGVSNRFSGSKSGNTASLTISGLQAEDEADYYCSSYTSSSTRVFGTGTKVTVLGQPKANPTVTLFPPSSEELQANKATLVCLISDFYPGAVTVAWKADGSPVKAGVETTKPSKQSNNKYAASSYLSLTPEQWKSHRSYSCQVTHEGSTVEKTVAPTECS
notes: Mesothelin targeting arm and PDL1 targeting arm
Which results are given for B1?
EC50 [1]: 163 nM; EC50 [2]: 0.25 nM
